In patent publication US20240392020A1 (JIANGSU HENGRUI PHARMACEUTICALS, published 2024):

T1: CEA on MKN45 cells (UniProt P06731 35-685)
T1 construct: whole, on cells
T1 sequence (looked up): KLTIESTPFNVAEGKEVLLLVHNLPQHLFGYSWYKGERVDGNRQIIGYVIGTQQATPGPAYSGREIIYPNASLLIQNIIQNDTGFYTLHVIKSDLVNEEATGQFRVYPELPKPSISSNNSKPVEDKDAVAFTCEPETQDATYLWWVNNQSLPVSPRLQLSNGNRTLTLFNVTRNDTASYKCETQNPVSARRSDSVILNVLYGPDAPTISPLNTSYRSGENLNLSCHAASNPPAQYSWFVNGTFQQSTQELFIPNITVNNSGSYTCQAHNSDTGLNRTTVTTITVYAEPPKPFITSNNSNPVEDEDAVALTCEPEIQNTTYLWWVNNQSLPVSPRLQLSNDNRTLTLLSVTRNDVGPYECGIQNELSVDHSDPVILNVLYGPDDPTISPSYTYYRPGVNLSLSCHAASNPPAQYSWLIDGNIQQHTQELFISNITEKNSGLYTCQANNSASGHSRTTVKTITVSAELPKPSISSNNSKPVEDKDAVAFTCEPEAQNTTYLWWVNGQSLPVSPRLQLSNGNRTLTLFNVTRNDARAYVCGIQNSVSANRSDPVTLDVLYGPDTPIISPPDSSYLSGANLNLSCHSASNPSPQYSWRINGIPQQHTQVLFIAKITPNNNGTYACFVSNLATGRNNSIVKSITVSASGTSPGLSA

T2: B7H3 on the recombinant cell line CT26-B7H3 (UniProt Q5ZPR3 29-534, limits assumed)
T2 construct: whole, on cells
T2 sequence (looked up): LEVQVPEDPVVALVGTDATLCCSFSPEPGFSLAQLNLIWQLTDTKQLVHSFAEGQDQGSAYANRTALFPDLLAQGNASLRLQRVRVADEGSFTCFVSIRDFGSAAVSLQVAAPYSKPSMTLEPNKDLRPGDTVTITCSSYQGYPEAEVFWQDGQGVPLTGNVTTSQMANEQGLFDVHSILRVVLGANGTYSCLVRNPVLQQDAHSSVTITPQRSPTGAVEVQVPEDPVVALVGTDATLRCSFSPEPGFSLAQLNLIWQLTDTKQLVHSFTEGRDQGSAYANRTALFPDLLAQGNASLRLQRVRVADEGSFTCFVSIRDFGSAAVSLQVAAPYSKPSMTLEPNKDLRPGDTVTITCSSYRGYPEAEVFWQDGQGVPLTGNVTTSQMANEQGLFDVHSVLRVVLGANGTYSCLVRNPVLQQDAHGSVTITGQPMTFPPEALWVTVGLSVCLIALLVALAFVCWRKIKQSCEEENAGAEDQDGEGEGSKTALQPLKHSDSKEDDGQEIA


Molecular target: T1, CEA on MKN45 cells
Assay: FACS, MKN45 cells

EC50 | Binder
5 nM | N11 (antibody) heavy: not shown light: EIVLTQSPGTLSLSPGERATLSCRASQNINNRFLAWYQQRPGQAPRLLIYAASSRATGVPDRFSGSGSGTDFTLTISRLEAEDFAMYHCQQYGSFPRTFGQGTMVDIKSGAPRFKTRPKAFVVSVGKDATLSSQIVGNPTPQVSWEKDQQPVAAGARFRLAQDGDLYRLKILDLALGDSGQYVSRARNAIGEAFACVGLQVDAEA
5.3 nM | N12 (antibody) heavy: not shown light: EIVLTQSPGTLSLSPGERATLSCRASQNINNRFLAWYQQRPGQAPRLLIYAASSRATGVPDRFSGSGSGTDFTLTISRLEAEDFAMYHCQQYGSFPRTFGQGTMVDIKSGAPRFKTRPKAFVVSVGKDATLSSQIVGNPTPQVSWEKDQQPVAAGARFRLAQDGDLYRLHILDLALGDSGQYVSRARNAIGEAFACVGLQVDAEA
1.9 nM | N14 (antibody) heavy: not shown light: EIVLTQSPGTLSLSPGERATLSCRASQNINNRFLAWYQQRPGQAPRLLIYAASSRATGVPDRFSGSGSGTDFTLTISRLEAEDFAMYHCQQYGSFPRTFGQGTMVDIKSGAPRFLTRPLAFVVSVGKDATLSSQIVGNPTPQVSWEKDQQPVAAGARFRLAQDGDLYRLKILDLALGDSGQYVSRARNAIGEAFACVGLQVDAEA
3.4 nM | N16 (antibody) heavy: not shown light: EIVLTQSPGTLSLSPGERATLSCRASQNINNRFLAWYQQRPGQAPRLLIYAASSRATGVPDRFSGSGSGTDFTLTISRLEAEDFAMYHCQQYGSFPRTFGQGTMVDIKSGAPRFLTRPLAFVVSVGKDATLSSQIVGNPTPQVSWEKDQQPVAAGARFRLAQDGDLYRLHILDLALGDSGQYVSRARNAIGEAFACVGLQVDAEA
3 nM | N10 (antibody) heavy: not shown light: EIVLTQSPGTLSLSPGERATLSCRASQNINNRFLAWYQQRPGQAPRLLIYAASSRATGVPDRFSGSGSGTDFTLTISRLEAEDFAMYHCQQYGSFPRTFGQGTMVDIKSGAPRFLTRPKAFVVSVGKDATLSSQIVGNPTPQVSWEKDQQPVAAGARFRLAQDGDLYRLTILDLALGDSGQYVSRARNAIGEAFACVGLQVDAEA
2.9 nM | N13 (antibody) heavy: not shown light: EIVLTQSPGTLSLSPGERATLSCRASQNINNRFLAWYQQRPGQAPRLLIYAASSRATGVPDRFSGSGSGTDFTLTISRLEAEDFAMYHCQQYGSFPRTFGQGTMVDIKSGAPRFKTRPKAFVVSVGKDATLSSQIVGNPTPQVSWEKDQQPVAAGARFRLAQDGDLYRLHILDLALGDSGQYVSRARNAIGEAFACVGLQVDAEA

Molecular target: T2, B7H3 on the recombinant cell line …
Assay: FACS, CT26-B7H3 cells

EC50 | Binder
3.4 nM | F21 (antibody) heavy: not shown light: DTVVTQEPSFSVSPGGTVTLTCGLSSGSVSTSHYPSWYQQTPGQAPRMLIYNTNTRSSGVPDRFSGSILGNKAALTITGAQADDESDYYCAIHVDRDIWVFGGGTKLTVLSGAPRFLTRPLAFVVSVGKDATLSSQIVGNPTPQVSWEKDQQPVAAGARFRLAQDGDLYRLKILDLALGDSGQYVSRARNAIGEAFACVGLQVDAEA
4.1 nM | F23 (antibody) heavy: not shown light: DTVVTQEPSFSVSPGGTVTLTCGLSSGSVSTSHYPSWYQQTPGQAPRMLIYNTNTRSSGVPDRFSGSILGNKAALTITGAQADDESDYYCAIHVDRDIWVFGGGTKLTVLSGAPRFLTRPLAFVVSVGKDATLSSQIVGNPTPQVSWEKDQQPVAAGARFRLAQDGDLYRLHILDLALGDSGQYVSRARNAIGEAFACVGLQVDAEA
2.4 nM | F24 (antibody) heavy: not shown light: DTVVTQEPSFSVSPGGTVTLTCGLSSGSVSTSHYPSWYQQTPGQAPRMLIYNTNTRSSGVPDRFSGSILGNKAALTITGAQADDESDYYCAIHVDRDIWVFGGGTKLTVLDQPQFSGAPRFKTRPKAFVVSVGKDATLSSQIVGNPTPQVSWEKDQQPVAAGARFRLAQDGDLYRLKILDLALGDSGQYVSRARNAIGEAFACVGLQVDAEA
2.6 nM | F26 (antibody) heavy: not shown light: DTVVTQEPSFSVSPGGTVTLTCGLSSGSVSTSHYPSWYQQTPGQAPRMLIYNTNTRSSGVPDRFSGSILGNKAALTITGAQADDESDYYCAIHVDRDIWVFGGGTKLTVLDQPQFSGAPRFKTRPKAFVVSVGKDATLSSQIVGNPTPQVSWEKDQQPVAAGARFRLAQDGDLYRLHILDLALGDSGQYVSRARNAIGEAFACVGLQVDAEA
2.4 nM | F28 (antibody) heavy: not shown light: DTVVTQEPSFSVSPGGTVTLTCGLSSGSVSTSHYPSWYQQTPGQAPRMLIYNTNTRSSGVPDRFSGSILGNKAALTITGAQADDESDYYCAIHVDRDIWVFGGGTKLTVLDQPQFSGAPRFRTRPKAFVVSVGKDATLSSQIVGNPTPQVSWEKDQQPVAAGARFRLAQDGDLYRLKILDLALGDSGQYVSRARNAIGEAFACVGLQVDAEA
3.4 nM | F30 (antibody) heavy: not shown light: DTVVTQEPSFSVSPGGTVTLTCGLSSGSVSTSHYPSWYQQTPGQAPRMLIYNTNTRSSGVPDRFSGSILGNKAALTITGAQADDESDYYCAIHVDRDIWVFGGGTKLTVLDQPQFSGAPRFRTRPKAFVVSVGKDATLSSQIVGNPTPQVSWEKDQQPVAAGARFRLAQDGDLYRLHILDLALGDSGQYVSRARNAIGEAFACVGLQVDAEA
2.6 nM | F25 (antibody) heavy: not shown light: DTVVTQEPSFSVSPGGTVTLTCGLSSGSVSTSHYPSWYQQTPGQAPRMLIYNTNTRSSGVPDRFSGSILGNKAALTITGAQADDESDYYCAIHVDRDIWVFGGGTKLTVLDQPQFSGAPRFKTRPKAFVVSVGKDATLSSQIVGNPTPQVSWEKDQQPVAAGARFRLAQDGDLYRLKILDLALGDSGQYVSRARNAIGEAFACVGLQVDAEA
1.2 nM | F27 (antibody) heavy: not shown light: DTVVTQEPSFSVSPGGTVTLTCGLSSGSVSTSHYPSWYQQTPGQAPRMLIYNTNTRSSGVPDRFSGSILGNKAALTITGAQADDESDYYCAIHVDRDIWVFGGGTKLTVLDQPQFSGAPRFKTRPKAFVVSVGKDATLSSQIVGNPTPQVSWEKDQQPVAAGARFRLAQDGDLYRLHILDLALGDSGQYVSRARNAIGEAFACVGLQVDAEA
3.6 nM | F29 (antibody) heavy: not shown light: DTVVTQEPSFSVSPGGTVTLTCGLSSGSVSTSHYPSWYQQTPGQAPRMLIYNTNTRSSGVPDRFSGSILGNKAALTITGAQADDESDYYCAIHVDRDIWVFGGGTKLTVLDQPQFSGAPRFRTRPKAFVVSVGKDATLSSQIVGNPTPQVSWEKDQQPVAAGARFRLAQDGDLYRLKILDLALGDSGQYVSRARNAIGEAFACVGLQVDAEA
2.4 nM | F31 (antibody) heavy: not shown light: DTVVTQEPSFSVSPGGTVTLTCGLSSGSVSTSHYPSWYQQTPGQAPRMLIYNTNTRSSGVPDRFSGSILGNKAALTITGAQADDESDYYCAIHVDRDIWVFGGGTKLTVLDQPQFSGAPRFRTRPKAFVVSVGKDATLSSQIVGNPTPQVSWEKDQQPVAAGARFRLAQDGDLYRLHILDLALGDSGQYVSRARNAIGEAFACVGLQVDAEA
3.69 nM | F32 (antibody) heavy: not shown light: DTVVTQEPSFSVSPGGTVTLTCGLSSGSVSTSHYPSWYQQTPGQAPRMLIYNTNTRSSGVPDRFSGSILGNKAALTITGAQADDESDYYCAIHVDRDIWVFGGGTKLTVLGGGGSGGGGSSGAPRFLTRPKAFVVSVGKDATLSSQIVGNPTPQVSWEKDQQPVAAGARFRLAQDGDLYRLTILDLALGDSGQYVSRARNAIGEAFACVGLQVDAEA
1.92 nM | F33 (antibody) heavy: not shown light: DTVVTQEPSFSVSPGGTVTLTCGLSSGSVSTSHYPSWYQQTPGQAPRMLIYNTNTRSSGVPDRFSGSILGNKAALTITGAQADDESDYYCAIHVDRDIWVFGGGTKLTVLGGGGSSGAPRFLTRPKAFVVSVGKDATLSSQIVGNPTPQVSWEKDQQPVAAGARFRLAQDGDLYRLTILDLALGDSGQYVSRARNAIGEAFACVGLQVDAEA
2.38 nM | F34 (antibody) heavy: not shown light: DTVVTQEPSFSVSPGGTVTLTCGLSSGSVSTSHYPSWYQQTPGQAPRMLIYNTNTRSSGVPDRFSGSILGNKAALTITGAQADDESDYYCAIHVDRDIWVFGGGTKLTVLGGGGSGGGGSSGAPRFLTRPKAFVVSVGKDATLSSQIVGNPTPQVSWEKDQQPVAAGARFRLAQDGDLYRLTILDLALGDSGQYVSRARNAIGEAFACVGLQVDAEA
